The results in this text go back to patent US20220235139A1 (ROCHE DIAGNOSTICS OPERATIONS, published 2022).

The target of experiment [1] is T1, human CSF-1R (Colony stimulating factor 1 receptor) (human, UniProt P07333 20-972, limits assumed).
T1 construct: also called M-CSF receptor; c-fms
Briefly: Western blot of cell lysates: lane 2 NIH3T3 wt, lane 3 NIH 3T3+CSF1 K4, lane 4 NIH 3T3+CSF1 K8 [continued]. Background: Immunoblotting shows a protein as a band on a membrane.

Experiment [2] concerns the target T2, TtSlyD-CSF1R.
T2 construct: also called 21 kDa TtSlyD-CSF1R protein
T2 chain: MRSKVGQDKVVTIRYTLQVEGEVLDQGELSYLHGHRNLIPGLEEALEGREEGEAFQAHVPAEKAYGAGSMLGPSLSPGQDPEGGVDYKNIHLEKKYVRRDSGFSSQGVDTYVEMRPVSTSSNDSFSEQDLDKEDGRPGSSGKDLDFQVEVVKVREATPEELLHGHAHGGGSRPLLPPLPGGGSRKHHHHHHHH
Briefly: SPR (Biacore), captured antibody, single injection of 300 nM analyte. On the procedure:
A Biacore B3000 instrument (GE Healthcare) was used to kinetically assess the rabbit antibodies for kinetics and binding specificity for TtSlyD-CSF1R. A CMS series sensor was mounted into the system and was normalized in HBS-ET buffer (10 mM HEPES pH 7.4, 150 mM NaCl, 3 mM EDTA, 0.005% w/v Tween 20) according to the manufacturer's instructions. The sample buffer was the system buffer supplemented with 1 mg/ml CMD (Carboxymethyldextran, Sigma #86524). The system operated at 25° C. 10000 RU GAR<F(ab)2> (relative units of goat anti rabbit F(ab)2/Jackson Laboratories, cat. No. 100018) were immobilized according to the manufacturer's instructions using EDC/NHS chemistry on all flow cells. The sensor was saturated with 1M ethanolamine. The binding activity of the antibodies against the analytes were kinetically tested. […] Antibodies were captured by a 2 min injection at 10 μl/min of cell culture HEK supernatant diluted 1:2 in sample buffer. The flow rate was set to 100 μl/min. The analyte was injected at different concentration steps of 0 nM, 1.1 nM, 3.7 nM, 11.1 nM, […], 100 nM and 300 nM for 2 min. The dissociation was monitored for 5 min. Kinetic signatures were monitored and evaluated using the Biaevaluation Software and a binary Langmuir Fitting model with RMAX local. […]

Experiment [3] concerns the target T3, SEQ ID NO 17: V-D-pY-K-N-I-H-L-E-K-K-pY-V-R-R.
T3 sequence (peptide, phosphotyrosine (pY) at positions 3 and 12): VDYKNIHLEKKYVRR
Description: CelluSpots peptide array, 15-mer CSF-1R peptides in duplicate.

Experiment [4] has as its target T4, SEQ ID NO: 14: E-G-G-V-D-pY-K-N-I-H-L-E-K-K-pY.
T4 sequence (peptide, phosphotyrosine (pY) at positions 6 and 15): EGGVDYKNIHLEKKY
Described as above.

Experiment [5] concerns the target T5, SEQ ID NO 16: G-V-D-pY-K-N-I-H-L-E-K-K-pY-V-R.
T5 sequence (peptide, phosphotyrosine (pY) at positions 4 and 13): GVDYKNIHLEKKYVR
The description is as above.

In experiment [6] the target is T6, SEQ ID NO 19: pY-K-N-I-H-L-E-K-K-pY-V-R-R-D-S.
T6 sequence (peptide, phosphotyrosine (pY) at positions 1 and 10): YKNIHLEKKYVRRDS
Described as above.

Experiment [7] has as its target T7, SEQ ID NO 20: K-N-I-H-L-E-K-K-pY-V-R-R-D-S-G.
T7 sequence (peptide, phosphotyrosine (pY) at position 9): KNIHLEKKYVRRDSG
The experiment is described as above.

The target in experiment [8] is T8, SEQ ID NO: 13: P-E-G-G-V-D-pY-K-N-I-H-L-E-K-K.
T8 sequence (peptide, phosphotyrosine (pY) at position 7): PEGGVDYKNIHLEKK
The description is as above.

Experiment [9] has as its target T9, SEQ ID NO 18: D-pY-K-N-I-H-L-E-K-K-pY-V-R-R-D.
T9 sequence (peptide, phosphotyrosine (pY) at positions 2 and 11): DYKNIHLEKKYVRRD
Described as above.

For experiment [10], the target named is T10, SEQ ID NO 15: G-G-V-D-pY-K-N-I-H-L-E-K-K-pY-V.
T10 sequence (peptide, phosphotyrosine (pY) at positions 5 and 14): GGVDYKNIHLEKKYV
Described as above.

Experiment [11] deals with T11, SEQ ID NO 21: N-I-H-L-E-K-K-pY-V-R-R-D-S-G-F.
T11 sequence (peptide, phosphotyrosine (pY) at position 8): NIHLEKKYVRRDSGF
The description is as above.

Experiment [12] deals with T12, phosphorylated TtSlyD-CSF1R.
T12 sequence (chain, tyrosines phosphorylated in vitro with Src (1-530) kinase; positions not stated): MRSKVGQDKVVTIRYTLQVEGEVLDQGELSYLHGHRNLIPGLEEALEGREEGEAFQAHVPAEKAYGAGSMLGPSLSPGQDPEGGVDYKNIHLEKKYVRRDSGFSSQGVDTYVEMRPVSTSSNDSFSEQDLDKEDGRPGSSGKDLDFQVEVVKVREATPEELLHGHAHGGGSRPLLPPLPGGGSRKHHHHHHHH
Description: SPR (Biacore), antibody captured on anti-rabbit F(ab)2, analyte in solution, Langmuir fit, 25 C. On the technique in general: Surface plasmon resonance follows binding to a sensor surface in real time, without labels.

T1 sequence (P07333 other isoform, or with tags, fused parts or gaps limits assumed): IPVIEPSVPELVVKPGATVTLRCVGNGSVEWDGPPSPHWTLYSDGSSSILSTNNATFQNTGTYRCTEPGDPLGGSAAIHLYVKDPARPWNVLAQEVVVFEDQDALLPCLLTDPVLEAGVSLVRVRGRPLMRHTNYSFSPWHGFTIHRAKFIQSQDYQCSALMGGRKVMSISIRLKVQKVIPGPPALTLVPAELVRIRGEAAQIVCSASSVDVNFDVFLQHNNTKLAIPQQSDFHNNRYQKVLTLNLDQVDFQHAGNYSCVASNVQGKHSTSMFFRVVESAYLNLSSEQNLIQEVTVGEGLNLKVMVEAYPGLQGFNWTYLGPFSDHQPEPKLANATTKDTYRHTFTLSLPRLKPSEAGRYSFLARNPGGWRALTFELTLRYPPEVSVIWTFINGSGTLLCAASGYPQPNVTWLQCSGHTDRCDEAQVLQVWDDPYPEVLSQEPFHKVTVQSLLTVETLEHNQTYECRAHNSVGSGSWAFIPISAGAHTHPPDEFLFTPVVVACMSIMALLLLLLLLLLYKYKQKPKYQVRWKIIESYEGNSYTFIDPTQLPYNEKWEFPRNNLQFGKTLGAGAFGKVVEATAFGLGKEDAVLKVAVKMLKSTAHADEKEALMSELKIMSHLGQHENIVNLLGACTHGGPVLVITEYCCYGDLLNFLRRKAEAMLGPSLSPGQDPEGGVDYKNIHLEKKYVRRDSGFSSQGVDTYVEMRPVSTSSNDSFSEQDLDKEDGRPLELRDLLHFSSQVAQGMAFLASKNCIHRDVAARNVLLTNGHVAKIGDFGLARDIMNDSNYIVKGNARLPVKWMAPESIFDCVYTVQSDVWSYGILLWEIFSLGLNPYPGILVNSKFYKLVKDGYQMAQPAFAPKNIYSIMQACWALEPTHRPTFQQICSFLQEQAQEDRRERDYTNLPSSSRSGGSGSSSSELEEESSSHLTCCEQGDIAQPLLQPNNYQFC

B1: antibody 1H11 (antibody, V domains shown)
VH: QSVEESGGRLVTPGTPLTLTCTASGFSLSRYWMTWVRQAPGKGLEYIGWIDRSGNTYFADWAKGRFTGSKTSTTRDLKITSPTTEDTATYFCGRGGQNNGYDLWGPGTLVTVSS
VL: AAVLTQTPSPVSAAVGGTVTISCQSSESVYSNNFLSWYQLKPGQRPRLLIYEASKVASGVPSRFSGSGSGTQFTLTISGVQCDDAATYYCAGGYDVSDDAFGGGTEVLVK
notes: Rabbit full length IgG made recombinantly in FreeStyle 293-F cells; For SPR it was captured from HEK culture supernatant on goat anti-rabbit F(ab)2; no sentence ties 1H11 to them directly; also called rabbit monoclonal anti-CSF-1R antibody
With B1, the binding result in experiment [1] and in experiment [2] was “binds” each time. Also, the % Signal in [3] came to 91.8%; in experiment [4] it was 55.3%; in [5] it was 73.9%; in experiment [6], 62.6%; in experiment [7] it was 48.9%; in [8], 100%. The results for the % Signal in [9], in [10] and in experiment [11] were 49.8%, 57.1% and 45.7%, respectively. Further, in experiment [12], the equilibrium dissociation constant (Kd) (commonly the constant that tells how readily two partners part at equilibrium) was 0.2 nM. Moreover, the koff (usually a measure of how fast the partners let go of each other) in experiment [12] was found to be 0.000122 s⁻¹. In addition, the kon (in general, the second-order rate constant of association) in [12] was found to be 578000 M⁻¹ s⁻¹.
